Laboratory results: paper PMC4601012 (Scientific Reports, 2015)

B1: H123#437 scFv (scFv, V domains shown)
VH: QVQLVQSGAEVKKPGSSVKVSCTSSEFMFPAFAISWVRQAPGQGLEWLGGISPMFDHPNYAQKFQGRVTITADQSTRTAYMDLRSLRSEDTAVYYCARSPTYLPSGVFDHWGQGTLVTVSS
VL: QPGLTQPPSVSKGLRQTATLTCTGNSNNVGNQGAAWLQQHQGHPPKLLSYRNNDRPSGISERFSASRSGNTASLTITGLQPEDEADYYCSTWDSSLSAVVFGGGTKLTVL
notes: source: E. coli ER2738, phage-free soluble scFv in filtered culture supernatant; not shown: E-tag, C-terminal, kept
B2: F10 IgG (antibody, V domains shown)
VH: QVQLVQSGAEVKKPGSSVKVSCTSSEVTFSSFAISWVRQAPGQGLEWLGGISPMFGTPNYAQKFQGRVTITADQSTRTAYMDLRSLRSEDTAVYYCARSPSYICSGGTCVFDHWGQGTLVTVSS
VL: QPGLTQPPSVSKGLRQTATLTCTGNSNNVGNQGAAWLQQHQGHPPKLLSYRNNDRPSGISERFSASRSGNTASLTITGLQPEDEADYYCSTWDSSLSAVVFGGGTKLTVL
B3: F10 scFv (scFv, V domains shown)
VH: QVQLVQSGAEVKKPGSSVKVSCTSSEVTFSSFAISWVRQAPGQGLEWLGGISPMFGTPNYAQKFQGRVTITADQSTRTAYMDLRSLRSEDTAVYYCARSPSYICSGGTCVFDHWGQGTLVTVSS
VL: QPGLTQPPSVSKGLRQTATLTCTGNSNNVGNQGAAWLQQHQGHPPKLLSYRNNDRPSGISERFSASRSGNTASLTITGLQPEDEADYYCSTWDSSLSAVVFGGGTKLTVL
notes: not shown: E-tag, C-terminal, kept
B4: H123#437 IgG (antibody, V domains shown)
VH: QVQLVQSGAEVKKPGSSVKVSCTSSEFMFPAFAISWVRQAPGQGLEWLGGISPMFDHPNYAQKFQGRVTITADQSTRTAYMDLRSLRSEDTAVYYCARSPTYLPSGVFDHWGQGTLVTVSS
VL: QPGLTQPPSVSKGLRQTATLTCTGNSNNVGNQGAAWLQQHQGHPPKLLSYRNNDRPSGISERFSASRSGNTASLTITGLQPEDEADYYCSTWDSSLSAVVFGGGTKLTVL

Experiments:
[1] = target: T1, CA/09 H1 HA: hemagglutinin of A/California/7/2009 (H1N1) (Influenza A virus A/California/07/2009 …, UniProt C3W5X2, strain); test: ELISA; conditions: one partner purified
T1 construct: source: insect cells, expressed and purified (Supplementary Methods)

[2] = target: T1, CA/09 H1 HA: hemagglutinin of …; test: SPR; conditions: both partners purified
[3] = target: BS/07 H1 HA: hemagglutinin of A/Brisbane/59/2007(H1N1) (Influenza A virus A/Brisbane/59/2007 …, strain); test: ELISA

Binder | normalized binding affinity (relative to F10 scFv) [1] | Kd [2] [nM] | koff [2] [s⁻¹] | kon [2] [M⁻¹ s⁻¹] | binding result ([3]; both partners purified) | binding result ([3]; one partner purified)
B1 | 5.2 |  |  |  |  | 
B2 |  | 0.046 | 1.11e-05 | 240000 | binds | 
B3 |  |  |  |  |  | binds
B4 |  | 0.091 | 3.52e-05 | 386000 | binds | 
